Test results published in patent US20230151373A1, “CHIMERIC POLYPEPTIDE FOR REGULATING IMMUNE CELLS” (STICHTING HET NEDERLANDS KANKER INSTITUUT-ANTONI VAN …, priority 2019, published 2023).

System: primary human T cells modified with the HLA class I restricted CDK4 TCR
Experiment: Cytokine release and degranulation assay, CDK4 TCR T cells co-cultured with CDK4 peptide loaded T2 cells
Type: cell-based
Description: For use as T cell targets, T2 and CBH 5477 cells were loaded with the indicated concentrations of HLA-A*02:01 restricted mutant CDK4 peptide (ALDPHSGHFV), HLA A*02:01 restricted NY-ESO-1 peptide (SLLMWITQA), or HLA-DR1 restricted CMV peptide (KYQEFFWDANDIYRI) in IMDM for 1 hour at 37° C. Cells were then washed once and used in co-culture experiments.
T cells and NK cells were pretreated with the indicated concentrations of asunaprevir (MedChemExpress, #HY-14434), grazoprevir (MedChemExpress, #HY-15298), dTAG-13 (Tocris, #6605) or DMSO control in T cell media (RPMI/10% human serum/penicillin-streptomycin, 100 IU/ml IL2 and 5 ng/ml IL15) or NK cell media (RPMI/8% FCS/penicillin-streptomycin, 500 IU/ml IL2), respectively, for 24 hours before co-culture experiments. 100,000 T cells or NK cells and 100,000 of indicated tumor cells were mixed in T cell or NK cell media supplemented with golgi-plug (1:1000 dilution, BD, #51-2301KZ) and anti-LAMP1-APC (1:100 dilution, Biolegend, #328620) in the presence of indicated drugs or DMSO control in 96-well plates and incubated for 5 hours at 37° C.
After incubation, cells were washed once with PBS and stained with IR dye (Invitrogen, #L34976) at 1:400 dilution for 5 minutes at 4° C. Subsequently, cells were washed once with FACS buffer (PBS plus 0.5% BSA) and stained with anti-CD8-PerCP Cy5.5 (1:20 dilution, BD, #341050), anti-CD4 BV711 (1:50 dilution, Biolegend, #317440), anti-murine constant TCR-PE (in experiments with transduced TCRs, 1:200 dilution, BD, #553172) or cetuximab-PE (in experiments with transduced CAR construct containing truncated human EGFR reporter, 1:200 dilution, R&D Systems, #FAB9577P) for 20 minutes at 4° C. Cells were then washed once with FACS buffer and fixed with BD fixation and permeabilization solution (#51-2090KZ) for 20 minutes at 4° C.
Following permeabilization, cells were washed twice with BD perm/wash buffer (#51-2091KZ) and stained with anti-IFNγ-BV421 (1:100 dilution, BD, #564791), anti-IL-2-PE-Cy7 (1:100 dilution, BD, #560707) and anti-TNFα-BV650 (1:100 dilution, Biolegend, #502938) diluted in perm/wash buffer for 20 min at 4° C. Cells were then washed twice, resuspended in 100 μl FACS buffer and analyzed directly on a Fortessa Special Order analyzer. Data were analyzed using FlowJo and Prism 7 software.

[1] = T cells co-cultured with 10 nM peptide loaded T2 tumor cells, relative to vector control

| Molecule | effect of construct expression on T cell cytokine production and degranulation (no drug, T2 cells loaded with CDK4 neoantigen) | reduction in percentage responding cells, IFNγ [1] | reduction in percentage responding cells, IL-2 [1] | reduction in percentage responding cells, TNFα [1] | reduction in percentage responding cells, cell surface LAMP1 [1] |
| --- | --- | --- | --- | --- | --- |
| Zap70 2×SH2: the Zap70 SH2 domains without inhibitory tail; human Zap70 (P43403, 1-264 aa) (protein, UniProt P43403 1-264, looked up, fragment) MPDPAAHLPFFYGSISRAEAEEHLKLAGMADGLFLLRQCLRSLGGYVLSLVHDVRFHHFPIERQLNGTYAIAGGKAHCGPAELCEFYSRDPDGLPCNLRKPCNRPSGLEPQPGVFDCLRDAMVRDYVRQTWKLEGEALEQAIISQAPQVEKLIATTAHERMPWYHSSLTREEAERKLYSGAQTDGKFLLRPRKEQGTYALSLIYGKTVYHYLISQDKAGKYCIPEGTKFDTLWQLVEYLKLKADGLIYCLKEACPNSSASNASG | modest inhibition of T cell functions |  |  |  |  |
| Zap70-PD1: human Zap70 fragment (1-264 aa), a GGS linker, the human PD1 intracellular domain (192-288 aa) (protein) MPDPAAHLPFFYGSISRAEAEEHLKLAGMADGLFLLRQCLRSLGGYVLSLVHDVRFHHFPIERQLNGTYAIAGGKAHCGPAELCEFYSRDPDGLPCNLRKPCNRPSGLEPQPGVFDCLRDAMVRDYVRQTWKLEGEALEQAIISQAPQVEKLIATTAHERMPWYHSSLTREEAERKLYSGAQTDGKFLLRPRKEQGTYALSLIYGKTVYHYLISQDKAGKYCIPEGTKFDTLWQLVEYLKLKADGLIYCLKEACPNSSASNASGGGSCSRAARGTIGARRTGQPLKEDPSAVPVFSVDYGELDFQWREKTPEPPVPCVPEQTEYATIVFPSGMGTSSPARRGSADGPRSAQPLRPEDGHCSWPL |  | 104 fold | 110 fold | 81 fold | 40 fold |
